In patent US8008547B2, “Glyphosate-N-acetyltransferase (GAT) genes” (E.I. duPont de Nemours, priority 2000, dated 2011) one finds Kcat and Km data, which are given here for 22 molecules.

One may read the Km as the concentration of substrate that gives half-maximal velocity.

This data set is described as follows: Standard protocol for determination of kcat and KM (continuous spectrophotometric assay, Acetyl CoA hydrolysis at 235 nm). The format is biochemical. To be noted: purified protein, about 23° C., 0.2 mM acetyl CoA; for Kcat: 20 mM HEPES pH 6.8, 10% ethylene glycol; for Km: pH 6.8, glyphosate 0.125 to 10 mM. Put shortly:
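KM from initial rates over 0.125–10 mM glyphosate, fitted by Lineweaver-Burke transformation of Michaelis-Menten; kcat/KM computed as kcat divided by KM. Continuous spectrophotometric read of acetyl-CoA hydrolysis at 235 nm.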

B1: SEQ ID NO: 274: GAT polypeptide (protein)
chain: MIEVKPINAEDTYEIRHRILRPNQPLEACKYETDLLGGTFHLGGYYRGKLVSIASFHQAEHPELEGRKQYQLRGMATLEGYREQKAGSTLIRHAEELLRKKGADLLWCNARTSASGYYKKLGFSEQGEVYDIPPTGPHILMYKKLT
modifications: 10_1H3
notes: GAT polypeptide
Turning to B1, the Kcat was found to be 1.27 s⁻¹ and the Michaelis-Menten constant (Km) turned out to be 1900 µM.

B2: SEQ ID NO: 275: GAT polypeptide (protein)
chain: MIEVKPINAEDTYEIRHRILRPNQPLEACMYETDLLGGTLHLGGYYRGKLISIASFHQAEHPELEGQKQYQLRGMATLEEYREQKAGSTLIRHAEELLRKKGADLLWCNARTSASGYYKKLGFSEQGGVYDIPPVGPHILMYKKLT
modifications: 10_20D10
notes: GAT polypeptide
As to B2, the Kcat turned out to be 1.44 s⁻¹ and the Km turned out to be 1600 µM.

B3: SEQ ID NO: 276: GAT polypeptide (protein)
chain: MIEVKPINAEDTYEIRHRILRPNQPLEACMYETDLLGGTFHLGGYYRGKLVSIASFHQAEHPELEGQKQYQLRGMATLEGYREQKAGSTLIRHAEELLRKKGADLLWCNARTSASGYYKKLGFSEQGEVYDTPPVGPHILMYKKLT
modifications: 10_23F2
notes: GAT polypeptide
Regarding B3, the Kcat amounted to 1.688 s⁻¹ and the Km was found to be 900 µM.

B4: SEQ ID NO: 437: GAT polypeptide (protein)
chain: MIEVKPINAEDTYEIRHRILRPNQPLEACKYETDLLGGTFHLGGYYRGKLISIASFHKAEHSELEGEEQYQLRGMATLEGYREQKAGSTLIRHAEELLRKKGADLLWCNARTSVSGYYKKLGFSEQGEVYDIPPIGPHILMYKKLT
modifications: 9H11
notes: GAT polypeptide
Turning to B4, the Kcat was found to be 0.067 s⁻¹ and the Km was determined as 2300 µM.

B5: SEQ ID NO: 438: GAT polypeptide (protein)
chain: MIEVKPINAEDTYELRHKILRPNQPIEACMYESDLLRGAFHLGGFYRGKLISIASFHQAEHSDLEGQKQYQLRGMATLEGYRDQKAGSTLIKHAEEILRKRGADMLWCNARTTASGYYKKLGFSEQGEIFDTPPVGPHILMYKRLT
modifications: 0_4B10
notes: GAT polypeptide
For the molecule B5, the Kcat worked out at 3.17 s⁻¹ and the Michaelis constant (Km) amounted to 680 µM.

B6: SEQ ID NO: 458: GAT polypeptide (protein)
chain: MIEVKPINAEDTYELRHKILRPNQPIEVCMYESDLLRGAFHLGGFYRGKLISIASFHQAEHPDLQGQKQYQLRGMATLEGYRDQKAGSSLIKHAEQILRKRGADLLWCNARTSASGYYKKLGFSEQGEVFETPPVGPHILMYKRLT
modifications: 11_3A11
notes: GAT polypeptide
Molecule B6 had a Kcat of 0.9277 s⁻¹.

B7: SEQ ID NO: 454: GAT polypeptide (protein)
chain: MLEVKPINAEDTYELRHRILRPNQPIEACMFESDLLRGAFHLGGFYRGKLISIASFHQAEHSELQGQKQYQLRGMATLEGYREQKAGSSLIRHAEEILRKRGADMLWCNARTSASGYYKKLGFSEQGEIFETPPVGPHILMYKRLT
modifications: 10_4F2
notes: GAT polypeptide
Consider B7, for which the Kcat is 3.8507 s⁻¹ and the Michaelis constant (Km) amounted to 200 µM.

B8: SEQ ID NO: 444: GAT polypeptide (protein)
chain: MIEVKPINAEDTYELRHRILRPNQPIEACMYESDLLRGAFHLGGFYRGKLISIASFHQAEHSDLQGQKQYQLRGMATLEGYREQKAGSTLIRHAEQLLRKRGADLLWCNARTSASGYYKRLGFSEQGEVFDTPPVGPHILMYKRLT
modifications: 0_5D11
notes: GAT polypeptide
As to B8, the Kcat turned out to be 3.73 s⁻¹ and the Michaelis-Menten constant (Km) amounted to 670 µM.

B9: SEQ ID NO: 442: GAT polypeptide (protein)
chain: MIEVKPINAEDTYELRHKILRPNQPIEACMYESDLLRGAFHLGGFYRGKLISIASFHQAEHSDLQGQKQYQLRGMATLEGYRDQKAGSSLIRHAEQILRKRGADLLWCNARTSASGYYKKLGFSEQGEIFDTPPVGPHILMYKRLT
modifications: 0_5B8
notes: GAT polypeptide
With B9, the Kcat was determined as 2.38 s⁻¹ and the Km stood at 270 µM.

B10: SEQ ID NO: 439: GAT polypeptide (protein)
chain: MIEVKPINAEDTYELRHKILRPNQPIEACMYESDLLRGAFHLGGFYGGKLISIASFHQAEHSDLEGQKQYQLRGMATLEGYRDQKAGSTLIKHAEQLLRKRGADMLWCNARTSASGYYKKLGFSEQGEVFETPPVGPHILMYKKIT
modifications: 0_5B11
notes: GAT polypeptide
With B10, the Kcat was 3.65 s⁻¹ and the Km came out at 540 µM.

B11: SEQ ID NO: 452: GAT polypeptide (protein)
chain: MIEVKPINAEDTYELRHKILRPNQPLEVCMYETDLLRGAFHLGGXYRGKLISIASFHQAEHSELQGQKQYQLRGMATLEGYRDQKAGSSLIKHAEQILRKRGADXLWCNARTSASGYYKKLGFSEQGEIFDTPPVGPHILMYKRLT
modifications: X: residue not identified in the source; ends and bridges not checked
notes: GAT polypeptide
On to B11, for which the Kcat came to 1.16 s⁻¹.

B12: SEQ ID NO: 456: GAT polypeptide (protein)
chain: MIEVKPINAEDTYELRHRILRPNQPIEACMFESDLLRGAFHLGGYYRGKLISIASFHQAEHSDLQGQKQYQLRGMATLEGYRDQKAGSSLIRHAEQILRKRGADLLWCNARTSASGYYKKLGFSEQGEIFDTPPVGPHILMYKRLT
modifications: 10_4G5
notes: GAT polypeptide
Turning to B12, the Kcat came out at 2.9442 s⁻¹ and the Km came to 580 µM.

B13: SEQ ID NO: 450: GAT polypeptide (protein)
chain: MIEVKPINAEDTYELRHRILRPNQPIEACMYESDLLRGAFHLGGYYRGKLISIASFHQAEHSELQGQKQYQLRGMATLEGFREQKAGSTLIRHAEQILRKRGADMLWCNARTSASGYYKKLGFSEQGEIFDTPPVGPHILMYKRIT
modifications: 0_6F2
notes: GAT polypeptide
In the case of B13, the Kcat worked out at 2.92 s⁻¹ and the Km came to 340 µM.

B14: SEQ ID NO: 451: GAT polypeptide (protein)
chain: MIEVKPINAEDTYELRHKILRPNQPIEACMYETDLLRGAFHLGGFYGGKLISIASFHQAEHSDLEGQKQYQLRGMATLEGYREQKAGSTLIRHAEEILRKKGANLLWCNARTSASGYYKKLGFSEQGEVFDTPPVGPHILMYKRLT
modifications: 0_6H9
notes: GAT polypeptide
Consider B14, for which the Kcat was found to be 3.8 s⁻¹ and the Km stood at 470 µM.

B15: SEQ ID NO: 440: GAT polypeptide (protein)
chain: MLEVKPINAEDTYELRHRILRPNQPIEACMYETDLLRGAFHLGGFYRGKLISIASFHQAEHSELQGQKQYQLRGMATLEGYRDQKAGSSLIKHAEQLLRKRGADLLWCNARTSASGYYKKLGFSEQGEVFDTPPVGPHILMYKRIT
modifications: 0_5B3
notes: GAT polypeptide
Turning to B15, the Kcat amounted to 2.38 s⁻¹ and the Km turned out to be 390 µM.

B16: SEQ ID NO: 455: GAT polypeptide (protein)
chain: MIEVKPINAEDTYELRHRILRPNQPIEVCMYETDLLRGAFHLGGFYRGKLISIASFHQAEHSELQGQKQYQLRGMATLEGFREQKAGSSLIRHAEQILRKRGADLLWCNARTSASGYYKKLGFSEQGEIFDTPPVGPHILMYKRLT
modifications: 10_4F9
notes: GAT polypeptide
For B16, the Kcat was 0.9232 s⁻¹.

B17: SEQ ID NO: 443: GAT polypeptide (protein)
chain: MIEVKPINAEDTYELRHKILRPNQPLEACMYETDLLRGAFHLGGFYRGKLISIASFHQAEHSGLQGQKQYQLRGMATLEGYREQKAGSSIIKHAEEILRKKGADLLWCNARTSASGYYKKLGFSEQGEIFDTPPVGPHILMYKRIT
modifications: 0_5C4
notes: GAT polypeptide
In the case of B17, the Kcat was 3.42 s⁻¹ and the Michaelis-Menten constant (Km) is 670 µM.

B18: SEQ ID NO: 453: GAT polypeptide (protein)
chain: MIEVKPINAEDTYELRHRILRPNQPIEVCMYETDLLRGAFHLGGFYRGKLISIASFHQAEHSDLQGQKQYQLRGMATLEGYREQKAGSTLIRHAEQILRKRGADLLWCNARTSASGYYKKLGFSEQGEVFDTPPVGPHILMYKRIT
modifications: 10_4D5
notes: GAT polypeptide
B18: the Kcat came out at 1.379 s⁻¹.

B19: SEQ ID NO: 441: GAT polypeptide (protein)
chain: MLEVKLINAEDTYELRHRILRPNQPLEACMYETDLLRGAFHLGGFYRGKLISIASFHQAEHSDLEGQKQYQLRGMATLEGFRDQKAGSSLIKHAEEILRKRGANLLWCNARTSASGYYKKLGFSEQGEVFDTPPVGPHILMYKRIT
modifications: 0_5B4
notes: GAT polypeptide
Consider B19, for which the Kcat was 3 s⁻¹ and the Km was found to be 600 µM.

B20: SEQ ID NO: 446: GAT polypeptide (protein)
chain: MIEVKPINAEETYELRHRILRPNQPIEACMYETDLLRGAFHLGGFYRGKLISIASFHQAEHSELEGQKQYQLRGMATLEGYRDQKAGSSLIRHAEQLLRKKGANMLWCNARTTASGYYKKLGFSEQGEIFDTPPVGPHILMYKRIT
modifications: 0_5D7
notes: GAT polypeptide
As for B20, the Kcat turned out to be 4.07 s⁻¹ and the Km was determined as 1100 µM.

B21: SEQ ID NO: 447: GAT polypeptide (protein)
chain: MLEVKPINAEDTYELRHRILRPNQPIEACMYESDLLRGALHLGGFYRGKLISIASFHQAEHSDLQGQKQYQLRGMATLEGFRDQKAGSSLIRHAEQILRKRGADLLWCNARTSASGYYKKLGFSEQGKVFDTPPVGPHILMYKRIT
modifications: 0_6B4
notes: GAT polypeptide
In the case of B21, the Kcat came to 4.2 s⁻¹ and the Michaelis constant (Km) came to 800 µM.

B22: SEQ ID NO: 449: GAT polypeptide (protein)
chain: MIEVKPINAEDTYELRHRILRPNQPIEACMYESDLLRGAFHLGGYYRGKLISIASFHQAEHSDLQGQKQYQLRGMATLEGFRDQKAGSSLIRHAEQILRKRGADLLWCNARTSASGYYKKLGFSEQGEVFETPPVGPHILMYKRIT
modifications: 0_6D11
notes: GAT polypeptide
As for B22, the Kcat was 3.53 s⁻¹ and the Michaelis constant (Km) worked out at 440 µM.
